Laboratory results from doi:10.1101/2024.03.15.585299, “Biochemical analysis of the endoribonuclease activity of the human mitochondrial topoisomerase 1”.

T1: scTop1 catalytically inactive (Y272F as printed) (Saccharomyces cerevisiae, UniProt P04786 1-769, Y727F)
T1 sequence: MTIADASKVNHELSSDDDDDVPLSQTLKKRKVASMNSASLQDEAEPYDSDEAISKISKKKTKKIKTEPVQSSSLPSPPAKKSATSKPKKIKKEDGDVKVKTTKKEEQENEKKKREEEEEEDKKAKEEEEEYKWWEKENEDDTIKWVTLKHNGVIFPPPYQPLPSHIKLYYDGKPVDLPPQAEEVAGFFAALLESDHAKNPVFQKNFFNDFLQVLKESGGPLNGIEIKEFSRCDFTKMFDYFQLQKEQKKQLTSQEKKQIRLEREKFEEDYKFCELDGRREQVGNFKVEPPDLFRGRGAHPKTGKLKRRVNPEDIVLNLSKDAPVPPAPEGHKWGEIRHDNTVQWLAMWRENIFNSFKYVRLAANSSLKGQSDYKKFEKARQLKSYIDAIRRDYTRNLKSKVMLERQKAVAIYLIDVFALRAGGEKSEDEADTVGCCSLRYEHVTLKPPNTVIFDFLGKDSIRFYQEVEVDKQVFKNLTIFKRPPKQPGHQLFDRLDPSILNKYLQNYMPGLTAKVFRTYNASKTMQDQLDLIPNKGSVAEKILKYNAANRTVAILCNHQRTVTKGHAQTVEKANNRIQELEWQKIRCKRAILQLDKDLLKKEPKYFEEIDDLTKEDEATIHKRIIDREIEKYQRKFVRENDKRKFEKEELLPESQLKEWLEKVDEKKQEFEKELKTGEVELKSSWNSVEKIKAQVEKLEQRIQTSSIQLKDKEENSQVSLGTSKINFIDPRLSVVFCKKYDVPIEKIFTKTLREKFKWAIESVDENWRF

T2: hTop1mt-Y559F (catalytically inactive) (Homo sapiens, UniProt Q969P6 51-601, Y559F)
T2 sequence: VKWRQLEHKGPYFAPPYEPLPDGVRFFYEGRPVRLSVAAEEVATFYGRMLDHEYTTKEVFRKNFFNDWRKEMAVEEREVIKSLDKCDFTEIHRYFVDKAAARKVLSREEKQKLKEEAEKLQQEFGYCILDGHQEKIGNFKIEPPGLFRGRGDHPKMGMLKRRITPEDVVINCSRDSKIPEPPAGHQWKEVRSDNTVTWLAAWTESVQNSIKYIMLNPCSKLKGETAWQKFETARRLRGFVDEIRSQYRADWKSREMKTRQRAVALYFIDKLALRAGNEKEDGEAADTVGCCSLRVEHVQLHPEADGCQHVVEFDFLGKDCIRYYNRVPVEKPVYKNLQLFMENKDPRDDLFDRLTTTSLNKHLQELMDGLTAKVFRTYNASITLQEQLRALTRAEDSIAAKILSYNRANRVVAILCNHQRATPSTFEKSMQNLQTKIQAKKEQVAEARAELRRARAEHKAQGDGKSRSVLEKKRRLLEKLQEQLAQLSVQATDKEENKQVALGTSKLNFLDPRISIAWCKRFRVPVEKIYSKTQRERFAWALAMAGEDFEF

B1: Substrate C (dsDNA)
DNA 1: ACTCGTCACGAGAGAGATGCCACGGTATTTCAAA
DNA 2: TTTGAAATACCGTGGCATCTCTCTCGTGACGAGT
B2: Substrate D (dsDNA)
DNA 1: B1 DNA 1
DNA 2: B1 DNA 2
modifications: single ribonucleotide rG at position 16 of top strand (2 nt upstream of cleavage site), rest DNA
B3: Substrate A (dsDNA)
DNA 1: AGCGTTGAAGATATGTGGCAAAACCTTTGT
DNA 2: ACAAAGGTTTTGCCACATATCTTCAACGCT

biological target: hTop1-Y723F (catalytically inactive) (Homo sapiens, UniProt P11387 1-765, Y723F); experiment: fluorescence anisotropy; 20 mM Tris pH 8, 66 mM NaCl, 1 mM DTT, 10% glycerol, 25 C, 10 min; 0.5 nM dsDNA, 0-60 nM Top1; settings: protein: recombinant; tags: GST removed by 3C protease; label: 5'-FAM top strand; blunt
Sequence (P11387 whole entry Y723F): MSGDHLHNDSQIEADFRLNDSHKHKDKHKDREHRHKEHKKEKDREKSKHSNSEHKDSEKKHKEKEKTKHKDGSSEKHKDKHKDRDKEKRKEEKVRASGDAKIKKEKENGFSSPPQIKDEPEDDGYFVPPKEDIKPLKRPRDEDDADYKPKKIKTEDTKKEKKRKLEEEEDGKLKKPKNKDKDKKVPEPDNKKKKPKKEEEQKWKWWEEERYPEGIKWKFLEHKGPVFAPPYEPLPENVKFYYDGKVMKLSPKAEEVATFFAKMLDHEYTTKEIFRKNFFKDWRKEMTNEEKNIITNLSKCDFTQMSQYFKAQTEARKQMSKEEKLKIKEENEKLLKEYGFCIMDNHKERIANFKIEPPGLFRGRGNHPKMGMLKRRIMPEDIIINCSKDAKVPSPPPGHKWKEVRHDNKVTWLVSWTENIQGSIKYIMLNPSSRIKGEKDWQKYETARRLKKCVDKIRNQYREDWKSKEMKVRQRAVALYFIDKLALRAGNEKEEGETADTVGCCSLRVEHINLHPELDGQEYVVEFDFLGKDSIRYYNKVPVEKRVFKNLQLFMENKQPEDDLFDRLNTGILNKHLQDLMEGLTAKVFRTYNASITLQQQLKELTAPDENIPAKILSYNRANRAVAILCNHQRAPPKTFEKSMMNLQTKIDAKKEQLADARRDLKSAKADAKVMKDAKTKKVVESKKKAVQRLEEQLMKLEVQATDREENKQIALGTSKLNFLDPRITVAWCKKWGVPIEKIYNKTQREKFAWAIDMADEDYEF

How did the Kd turn out when B1 was run?
Its Kd is 1.26 nM.

With B2 as the binder, how does the Kd read?
The Kd was 1.36 nM.

How did the Kd turn out when B3 was run?
Its Kd is 1.16 nM.

biological target: T1, scTop1 catalytically inactive (Y272F as …); experiment: as above; settings: protein: recombinant; tags: GST removed by 3C protease; label: 5'-FAM top strand; blunt

Which Kd does the source give for B1 here?
The Kd was 9.47 nM.

How did the Kd turn out when B2 was run?
The Kd was 8.75 nM.

Which Kd does the source give for B3 here?
The Kd was 3.55 nM.

biological target: T2, hTop1mt-Y559F (catalytically inactive); experiment: as above; settings: protein: recombinant; tags: GST removed by 3C protease; label: 5'-FAM top strand; blunt

For B1, which Kd is on record?
Its Kd is 4.57 nM.

With B2 as the binder, how does the Kd read?
Its Kd is 2.29 nM.

Which Kd does the source give for B3 here?
Its Kd is 3.5 nM.
